# Test results taken from patent publication US10648014B2, “Degradation resistant peptide based biosensors” (Purdue Research Foundation, priority 2014, dated 2020).
# Square brackets hold non-standard residues; d marks the D form. Ends that are not written are not given here. * marks the point of attachment. Biotin = O=C1N[C@H]2[C@H](CS[C@H]2CCCCC(=O)*)N1; photo‑cleavable linker = not defined here
# Assays:
# [1] = test system: K562 chronic myelogenous leukemia (CML) cells; type: in vitro ADME, Human
# Description: Biosensor Enrichment: K562 cells were incubated in lysis buffer for 20 minutes. Samples were spun down in 2500×g for 5 minutes at 4° C. Lysate was transferred to new Eppendorf tubes and treated with UV light (CL-1000 Ultraviolet Crosslinker (UVP, Upland, Calif., USA)) for 20 minutes to cleave the photo-cleavable linker. Photocleaved lysate samples were incubated with streptavidin coated agarose beads (Pierce) in 96 well polypropylene filter plate (PALL, Ann Arbor, Mich.) for 20 minutes at room temperature. Following incubation, the plate was spun down at 250×g for 30 seconds over a 96 well collection plate. The wells were washed 4 times with 200 uL of PBS and 2 times with MilliQ water, and spun down for 30 seconds at 250×g after each addition. Beads were resuspended in 15 μL of (75%/25%/0.1%:acetonitrile/water/TFA) elution buffer and shaken for 15 minutes at 600 rpm. Biosensor samples were spotted at 0.5 μL on a MALDI plate with 0.5 μL of matrix (10 mg/mL α-cyano-4-cinnamic acid and 10 mg/mL ammonium hydrogen phosphate, dissolved in 75%/25%/0.1% acetonitrile/water/TFA). Mass analysis was performed using an Applied Biosystems Voyager 4800 MALDI-TOF/TOF using linear positive mode.
# Human K562 chronic myelogenous leukemia (CML) cells were exposed to either the control biosensor SEQ ID NO: 52 or the biosensor SEQ ID NO: 47 for 5 minutes as shown in FIGS. 8-13. […]
# [2] = test system: Abl kinase; experiment: In vitro Abl kinase assay, phosphorylation detected by mass spectrometry; type: biochemical; details: for phosphorylation by Abl kinase: in vitro kinase assay, mass spectrometry, FIG. 2; for selectivity toward the Abl family of kinases: in vitro kinase assays Abl vs Lyn and Fyn
# Description: (§1) In Vitro Abl Kinase Assay: The in vitro kinase assays were performed in triplicate in Dulbecco's Phosphate Buffered Saline without Calcium, Magnesium, or Phenol red in water bath maintained at 37° C. The total volume of the assay was 200 uL, and contained 1 mM ATP, 10 mM MgCl2, 5-25 uM of the biosensor, and 6 nM of Arg or Lyn Kinase final concentrations. Initiation of the assay was the addition of 1 uL of Arg Kinase to the reaction mix and heated at 37° C. Aliquots of 20 uL were collected at intervals described over a total run time of up to 60 minutes.
# Referring now to FIG. 2, to evaluate the importance of the SH3 targeting sequence, we performed in vitro kinase assays comparing the peptides using the Abl kinase. Phosphorylation was detected using mass spectrometry.
# [3] = target: Lyn kinase (Homo sapiens, UniProt P07948); experiment: In vitro kinase assay against Lyn kinase; type: biochemical; details: FIG. 2
# Sequence of Lyn kinase (P07948 whole entry): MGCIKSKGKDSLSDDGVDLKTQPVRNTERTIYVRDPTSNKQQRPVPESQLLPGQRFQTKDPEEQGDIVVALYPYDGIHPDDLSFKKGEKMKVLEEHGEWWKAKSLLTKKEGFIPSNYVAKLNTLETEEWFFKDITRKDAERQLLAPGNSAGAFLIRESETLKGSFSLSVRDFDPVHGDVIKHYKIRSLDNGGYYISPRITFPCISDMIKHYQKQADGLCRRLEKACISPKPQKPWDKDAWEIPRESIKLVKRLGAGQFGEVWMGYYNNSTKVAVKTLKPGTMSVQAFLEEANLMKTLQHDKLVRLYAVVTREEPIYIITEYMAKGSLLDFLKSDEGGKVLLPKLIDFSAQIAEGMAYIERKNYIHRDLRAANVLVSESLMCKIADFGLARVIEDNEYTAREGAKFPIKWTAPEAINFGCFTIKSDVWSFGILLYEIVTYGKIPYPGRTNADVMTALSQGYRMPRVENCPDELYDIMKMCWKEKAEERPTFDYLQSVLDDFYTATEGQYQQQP
# Description: as §1
# (§2) In order to assess the selectivity of the biosensor SEQ ID NO: 47, we tested against Lyn and Fyn kinases using the in vitro kinase assay.
# [4] = target: Fyn kinase (Homo sapiens, UniProt P06241); experiment: In vitro kinase assay against Fyn kinase; type: biochemical; details: FIG. 2
# Sequence of Fyn kinase (P06241 whole entry): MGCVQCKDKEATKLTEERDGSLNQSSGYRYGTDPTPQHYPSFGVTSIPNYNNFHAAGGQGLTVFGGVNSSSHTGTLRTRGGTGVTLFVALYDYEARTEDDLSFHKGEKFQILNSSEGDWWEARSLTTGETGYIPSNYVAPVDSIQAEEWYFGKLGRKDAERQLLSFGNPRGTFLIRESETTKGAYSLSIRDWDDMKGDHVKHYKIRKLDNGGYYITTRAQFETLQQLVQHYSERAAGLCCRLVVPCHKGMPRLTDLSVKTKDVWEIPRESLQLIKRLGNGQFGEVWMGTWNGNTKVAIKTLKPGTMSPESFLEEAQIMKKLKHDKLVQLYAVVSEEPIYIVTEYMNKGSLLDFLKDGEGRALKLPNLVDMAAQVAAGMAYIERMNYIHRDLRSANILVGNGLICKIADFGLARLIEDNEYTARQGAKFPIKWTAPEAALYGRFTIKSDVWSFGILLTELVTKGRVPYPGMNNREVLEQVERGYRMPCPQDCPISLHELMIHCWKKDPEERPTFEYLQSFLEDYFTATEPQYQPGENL
# Description: as §1, §2
# [5] = test system: K562 cells; type: cell-based, Human
# Description: Flow Cytometry: K562 cells (about 1×10^6 cells/mL) were incubated for 30 minutes with FITC labeled biosensors at various concentrations, 1-50 μM. Cells were centrifuged at about 2500 rpm for about 5 minutes at 4° C. Media was aspirated and cells were washed 3 times with fresh media. A FC500 flow cytometer (Beckman Coulter) was used to analyze 50 μL aliquots of suspended cells.
# Flow cytometry was used to verify the uptake of the biosensor SEQ ID NO:47 by K562 cells. We conjugated a FITC fluorophore to the cysteine residue of the biosensor by maleimide reaction.
# [6] = target: T1, Bcr-Abl kinase (Homo sapiens, UniProt P00519); experiment: K562 cell kinase assay, intracellular phosphorylation of biosensor; type: cell-based; details: K562 cells, 60 minutes incubation, FIG. 6
# T1 construct: endogenous in cells; host or cells: K562; the other entry of the earlier key: BCR (P11274, Breakpoint cluster region protein)
# T1 sequence (P00519 with tags, fused parts or gaps): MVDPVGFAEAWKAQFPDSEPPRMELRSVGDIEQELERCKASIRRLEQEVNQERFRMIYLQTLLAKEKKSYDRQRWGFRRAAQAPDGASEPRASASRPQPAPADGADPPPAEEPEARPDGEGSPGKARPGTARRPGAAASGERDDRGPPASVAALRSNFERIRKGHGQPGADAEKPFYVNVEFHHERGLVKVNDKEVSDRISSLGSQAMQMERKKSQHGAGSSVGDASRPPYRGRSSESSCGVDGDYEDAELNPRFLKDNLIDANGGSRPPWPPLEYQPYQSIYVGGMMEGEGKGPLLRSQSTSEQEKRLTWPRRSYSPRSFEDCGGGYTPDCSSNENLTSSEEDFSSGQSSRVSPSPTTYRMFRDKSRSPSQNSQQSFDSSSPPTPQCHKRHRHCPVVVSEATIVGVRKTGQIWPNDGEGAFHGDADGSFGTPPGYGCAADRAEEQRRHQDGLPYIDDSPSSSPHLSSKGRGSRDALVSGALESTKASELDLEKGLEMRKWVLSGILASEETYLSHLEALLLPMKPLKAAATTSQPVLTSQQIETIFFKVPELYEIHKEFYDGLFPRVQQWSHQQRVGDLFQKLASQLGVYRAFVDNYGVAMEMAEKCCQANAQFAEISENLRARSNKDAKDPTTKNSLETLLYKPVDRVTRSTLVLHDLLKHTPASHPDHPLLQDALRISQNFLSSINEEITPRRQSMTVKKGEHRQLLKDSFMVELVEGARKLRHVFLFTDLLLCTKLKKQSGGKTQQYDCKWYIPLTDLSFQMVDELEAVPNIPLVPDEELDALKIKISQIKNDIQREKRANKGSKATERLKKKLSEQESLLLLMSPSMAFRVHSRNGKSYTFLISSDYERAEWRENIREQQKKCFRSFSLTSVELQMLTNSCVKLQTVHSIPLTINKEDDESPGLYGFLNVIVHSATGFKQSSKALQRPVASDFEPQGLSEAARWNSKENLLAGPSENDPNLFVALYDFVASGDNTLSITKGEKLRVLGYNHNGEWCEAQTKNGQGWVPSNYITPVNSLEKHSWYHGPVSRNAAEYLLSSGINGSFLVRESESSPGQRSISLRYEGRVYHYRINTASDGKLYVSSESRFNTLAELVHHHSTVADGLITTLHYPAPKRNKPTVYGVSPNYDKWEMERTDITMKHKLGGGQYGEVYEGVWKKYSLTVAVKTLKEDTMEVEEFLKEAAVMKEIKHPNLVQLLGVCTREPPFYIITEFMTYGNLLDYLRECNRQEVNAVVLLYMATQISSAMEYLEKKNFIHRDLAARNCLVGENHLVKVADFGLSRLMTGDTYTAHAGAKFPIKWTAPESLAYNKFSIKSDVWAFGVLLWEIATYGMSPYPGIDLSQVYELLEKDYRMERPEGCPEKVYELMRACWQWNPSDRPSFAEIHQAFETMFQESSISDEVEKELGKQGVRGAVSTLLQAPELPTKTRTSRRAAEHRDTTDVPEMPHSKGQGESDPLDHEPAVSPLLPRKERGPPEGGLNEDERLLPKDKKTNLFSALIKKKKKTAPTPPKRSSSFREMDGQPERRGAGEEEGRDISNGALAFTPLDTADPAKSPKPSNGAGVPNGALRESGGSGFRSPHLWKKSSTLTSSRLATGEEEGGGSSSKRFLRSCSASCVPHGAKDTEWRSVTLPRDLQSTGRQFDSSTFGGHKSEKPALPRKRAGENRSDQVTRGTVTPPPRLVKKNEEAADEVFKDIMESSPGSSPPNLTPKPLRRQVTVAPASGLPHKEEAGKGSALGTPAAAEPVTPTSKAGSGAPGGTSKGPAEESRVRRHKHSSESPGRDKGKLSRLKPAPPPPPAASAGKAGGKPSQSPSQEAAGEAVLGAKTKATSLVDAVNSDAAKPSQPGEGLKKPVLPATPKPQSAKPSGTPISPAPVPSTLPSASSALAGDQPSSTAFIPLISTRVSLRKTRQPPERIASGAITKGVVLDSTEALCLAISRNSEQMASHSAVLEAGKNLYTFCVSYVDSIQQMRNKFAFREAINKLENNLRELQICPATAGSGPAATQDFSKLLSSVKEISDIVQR
# [7] = biosensor incubated with Abl kinase, Michaelis Menten, FIG. 3
Substance,degradation after exposure to K562 cells [1],"Km [2, 7] [µM]","Vmax [2, 7] [pmol/mg/min]",phosphorylation by Abl kinase [2],selectivity toward the Abl family of kinases [2],phosphorylation by Lyn kinase [3],selectivity for Abl over Lyn or Fyn kinases [4],uptake by K562 cells [5],intracellular phosphorylation of the biosensor [6]
"EAIYAAFAKKG-Kbiotin-photo-cleavable linker-GCGAPTYSPPPPPGGRKKRRQRRR (EAIYAAFAKKGK(Biotin)[photo‑cleavable linker]GCGAPTYSPPPPPGGRKKRRQRRR; reading uncertain) [SEQ ID NO: 52, reference compound]",almost completely degraded,,,,,,,,
KbiotinkkafpaayiaeG-photo-cleavable linker-GCGAPTYSPPPPPGGrrrqrrkkr (K(Biotin)[dK][dK][dA][dF][dP][dA][dA][dY][dI][dA][dE]G[photo‑cleavable linker]GCGAPTYSPPPPPGG[dR][dR][dR][dQ][dR][dR][dK][dK][dR]; reading uncertain) [SEQ ID NO:47],essentially intact,7.5,849.5,phosphorylated with reasonable efficiency,relatively selective toward the Abl family of kinases,did not phosphorylate,selective for Abl over Lyn or Fyn kinases,confirmed the uptake,observed
KbiotinkkafpaayiaeG-photo-cleavable linker-GCGGrrrqrrkkr (K(Biotin)[dK][dK][dA][dF][dP][dA][dA][dY][dI][dA][dE]G[photo‑cleavable linker]GCGG[dR][dR][dR][dQ][dR][dR][dK][dK][dR]; reading uncertain) [SEQ ID NO: 53],,,,not appreciably phosphorylated,relatively selective toward the Abl family of kinases,,,,
